Source: patent publication US20240018502A1

Columns and labels:
Assay in all cases: cell-based or functional assay
[1] = biological target: human complement protein C3 (human) (UniProt P01024)
[2] = biological target: proteinase-activated receptor 2 (PAR-2) (UniProt P55085)
[3] = biological target: complement protein C3 of cynomolgus monkey plasma (cynomolgus monkey)

Chain of human complement protein C3 (human) (P01024 23-667, chain 1 of 2): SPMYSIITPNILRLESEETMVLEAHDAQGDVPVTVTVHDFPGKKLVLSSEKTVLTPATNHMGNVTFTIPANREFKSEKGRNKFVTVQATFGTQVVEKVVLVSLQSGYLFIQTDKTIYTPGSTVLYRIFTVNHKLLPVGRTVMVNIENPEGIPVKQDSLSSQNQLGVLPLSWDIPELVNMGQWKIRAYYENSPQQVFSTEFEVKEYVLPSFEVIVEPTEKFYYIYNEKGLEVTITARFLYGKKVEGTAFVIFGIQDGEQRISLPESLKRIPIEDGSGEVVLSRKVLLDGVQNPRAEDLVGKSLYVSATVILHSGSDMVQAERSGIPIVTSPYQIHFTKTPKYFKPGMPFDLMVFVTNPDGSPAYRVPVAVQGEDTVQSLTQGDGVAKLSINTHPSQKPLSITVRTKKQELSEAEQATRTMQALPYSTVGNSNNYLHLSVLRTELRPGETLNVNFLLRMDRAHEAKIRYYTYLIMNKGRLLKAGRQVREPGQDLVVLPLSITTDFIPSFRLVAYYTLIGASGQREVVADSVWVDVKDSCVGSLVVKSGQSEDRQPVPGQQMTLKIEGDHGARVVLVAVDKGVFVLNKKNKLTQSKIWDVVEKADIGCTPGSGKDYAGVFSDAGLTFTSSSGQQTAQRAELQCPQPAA
Chain of human complement protein C3 (human) (P01024 672-1663, chain 2 of 2): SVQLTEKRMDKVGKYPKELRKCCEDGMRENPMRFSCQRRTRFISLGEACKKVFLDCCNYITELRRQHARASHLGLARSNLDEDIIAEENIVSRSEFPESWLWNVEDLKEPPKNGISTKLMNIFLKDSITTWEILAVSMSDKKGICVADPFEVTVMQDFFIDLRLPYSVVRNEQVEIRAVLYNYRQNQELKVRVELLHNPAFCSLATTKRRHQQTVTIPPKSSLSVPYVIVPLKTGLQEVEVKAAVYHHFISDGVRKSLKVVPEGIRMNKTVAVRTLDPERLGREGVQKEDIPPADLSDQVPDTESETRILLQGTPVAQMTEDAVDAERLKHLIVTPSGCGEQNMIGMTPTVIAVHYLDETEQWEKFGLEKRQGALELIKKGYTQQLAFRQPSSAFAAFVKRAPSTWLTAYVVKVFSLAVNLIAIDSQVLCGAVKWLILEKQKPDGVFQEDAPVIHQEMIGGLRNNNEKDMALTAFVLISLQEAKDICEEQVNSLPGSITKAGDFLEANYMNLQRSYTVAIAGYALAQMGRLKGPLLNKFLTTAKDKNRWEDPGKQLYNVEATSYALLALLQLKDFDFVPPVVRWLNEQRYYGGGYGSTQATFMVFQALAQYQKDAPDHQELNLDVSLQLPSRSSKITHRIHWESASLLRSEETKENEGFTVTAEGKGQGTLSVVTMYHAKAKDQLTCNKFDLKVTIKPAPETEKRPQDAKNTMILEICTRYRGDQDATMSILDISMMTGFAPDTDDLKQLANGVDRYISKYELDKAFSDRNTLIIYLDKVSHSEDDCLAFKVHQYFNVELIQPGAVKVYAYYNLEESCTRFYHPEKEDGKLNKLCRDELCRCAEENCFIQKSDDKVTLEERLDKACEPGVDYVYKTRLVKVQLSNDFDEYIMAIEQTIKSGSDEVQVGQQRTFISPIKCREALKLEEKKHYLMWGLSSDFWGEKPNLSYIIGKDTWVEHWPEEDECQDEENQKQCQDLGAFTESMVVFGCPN
Chain of proteinase-activated receptor 2 (PAR-2) (P55085 37-397 limits assumed): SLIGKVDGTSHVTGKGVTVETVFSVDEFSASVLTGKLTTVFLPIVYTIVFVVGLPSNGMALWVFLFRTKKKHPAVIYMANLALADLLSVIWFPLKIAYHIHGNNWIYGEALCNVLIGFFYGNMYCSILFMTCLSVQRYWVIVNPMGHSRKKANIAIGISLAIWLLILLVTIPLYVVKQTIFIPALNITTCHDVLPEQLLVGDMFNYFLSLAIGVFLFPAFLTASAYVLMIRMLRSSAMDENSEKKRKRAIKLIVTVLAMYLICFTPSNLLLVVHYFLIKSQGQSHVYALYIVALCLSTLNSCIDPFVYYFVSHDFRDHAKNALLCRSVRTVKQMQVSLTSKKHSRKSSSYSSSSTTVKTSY

| PAR-2 Cell Based Assay ED50 [2] | PAR-2 cell based assay ED50 and SKGR/SL kcat/Km, against wild-type MTSP-1 protease domain with C122S [2] | C3 destruction ED50 (mg/kg), in vivo, intravenous injection, cynomolgus monkey [3] | Binder | other results |
| --- | --- | --- | --- | --- |
| 150 nM | – | – | Q38H/I41A/D60bV/F60eR/Y60gW/D96I/F97N/T98G/F99L/C122S/G151N/Q175L/Q192D (enzyme) VVGGTDADEGEWPWQVSLHALGHGHACGASLISPNWLVSAAHCYIDVRGRRWSDPTQWTAFLGLHDQSQRSAPGVQERRLKRIISHPFFNINGLDYDIALLELEKPAEYSSMVRPISLPDASHVFPAGKAIWVTGWGHTQYGGTNALILQKGEIRVINQTTCENLLPQLITPRMMCVGFLSGGVDSCDGDSGGPLSSVEADGRIFQAGVVSWGDGCAQRNKPGVYTRLPLFRDWIKENTGV | EC50 (nM), cleavage of purified hC3 in vitro [1]: 2.87 nM |
| – | > 30 fold | – | Modified MTSP-1 protease domain Q38H/I41S/D60bT/F60eS/Y60gW/D96K/F97G/ins97aV/T98P/F99L/C122S/G151H/Q175L/Q192D (enzyme) VVGGTDADEGEWPWQVSLHALGHGHSCGASLISPNWLVSAAHCYIDTRGSRWSDPTQWTAFLGLHDQSQRSAPGVQERRLKRIISHPFFNKGVPLDYDIALLELEKPAEYSSMVRPISLPDASHVFPAGKAIWVTGWGHTQYGGTHALILQKGEIRVINQTTCENLLPQLITPRMMCVGFLSGGVDSCDGDSGGPLSSVEADGRIFQAGVVSWGDGCAQRNKPGVYTRLPLFRDWIKENTGV | inhibition of classical pathway hemolytic assay (CH50) in human plasma at the highest dose (2000 nM) [1]: 94% |
| – | > 30 fold | – | Modified MTSP-1 protease domain Q38H/I41A/D60bV/F60eR/Y60gW/F97T/ins97aE/T98G/F99L/C122S/G151N/Q175L/Q192D (enzyme) VVGGTDADEGEWPWQVSLHALGHGHACGASLISPNWLVSAAHCYIDVRGRRWSDPTQWTAFLGLHDQSQRSAPGVQERRLKRIISHPFFNDTEGLDYDIALLELEKPAEYSSMVRPISLPDASHVFPAGKAIWVTGWGHTQYGGTNALILQKGEIRVINQTTCENLLPQLITPRMMCVGFLSGGVDSCDGDSGGPLSSVEADGRIFQAGVVSWGDGCAQRNKPGVYTRLPLFRDWIKENTGV | – |
| 450 nM | – | 0.06 mg/kg | Q38H/I41A/D60bV/F60eR/Y60gW/D96I/F97Y/ins97aN/T98G/F99L/C122S/G151N/Q175L/Q192D (enzyme) VVGGTDADEGEWPWQVSLHALGHGHACGASLISPNWLVSAAHCYIDVRGRRWSDPTQWTAFLGLHDQSQRSAPGVQERRLKRIISHPFFNIYNGLDYDIALLELEKPAEYSSMVRPISLPDASHVFPAGKAIWVTGWGHTQYGGTNALILQKGEIRVINQTTCENLLPQLITPRMMCVGFLSGGVDSCDGDSGGPLSSVEADGRIFQAGVVSWGDGCAQRNKPGVYTRLPLFRDWIKENTGV | – |
| – | > 30 fold | – | Modified MTSP-1 protease domain Q38H/I41A/D60bT/F60eK/Y60gW/F97T/ins97aE/T98G/F99L/C122S/G151N/Q175L/Q192D (enzyme) VVGGTDADEGEWPWQVSLHALGHGHACGASLISPNWLVSAAHCYIDTRGKRWSDPTQWTAFLGLHDQSQRSAPGVQERRLKRIISHPFFNDTEGLDYDIALLELEKPAEYSSMVRPISLPDASHVFPAGKAIWVTGWGHTQYGGTNALILQKGEIRVINQTTCENLLPQLITPRMMCVGFLSGGVDSCDGDSGGPLSSVEADGRIFQAGVVSWGDGCAQRNKPGVYTRLPLFRDWIKENTGV | – |
| – | – | 0.07 mg/kg | Q38H/I41S/D60bT/F60eS/Y60gW/D96K/F97G/ins97aV/T98P/F99L/C122S/G151H/Q175L/Q192D (enzyme) VVGGTDADEGEWPWQVSLHALGHGHSCGASLISPNWLVSAAHCYIDTRGSRWSDPTQWTAFLGLHDQSQRSAPGVQERRLKRIISHPFFNKGVPLDYDIALLELEKPAEYSSMVRPISLPDASHVFPAGKAIWVTGWGHTQYGGTHALILQKGEIRVINQTTCENLLPQLITPRMMCVGFLSGGVDSCDGDSGGPLSSVEADGRIFQAGVVSWGDGCAQRNKPGVYTRLPLFRDWIKENTGV | % Inhibition of CH50, human citrated plasma, 3.2 nM test article [1]: -5%; % Inhibition of CH50, human citrated plasma, 16 nM test article [1]: 1%; % Inhibition of CH50, human citrated plasma, 80 nM test article [1]: 40%; % Inhibition of CH50, human citrated plasma, 400 nM test article [1]: 84%; % Inhibition of CH50, human citrated plasma, 2000 nM test article [1]: 92%; EC50 (nM), cleavage of purified hC3 in vitro [1]: 6.86 nM |
| 1800 nM | – | 0.1 mg/kg | Q38H/I41S/D60bT/F60eS/Y60gW/F97D/ins97aV/T98P/F99L/C122S/G151H/Q175L/Q192E (enzyme) VVGGTDADEGEWPWQVSLHALGHGHSCGASLISPNWLVSAAHCYIDTRGSRWSDPTQWTAFLGLHDQSQRSAPGVQERRLKRIISHPFFNDDVPLDYDIALLELEKPAEYSSMVRPISLPDASHVFPAGKAIWVTGWGHTQYGGTHALILQKGEIRVINQTTCENLLPQLITPRMMCVGFLSGGVDSCEGDSGGPLSSVEADGRIFQAGVVSWGDGCAQRNKPGVYTRLPLFRDWIKENTGV | – |
| 690 nM | – | 0.2 mg/kg | Q38H/I41A/D60bV/F60eR/Y60gW/F97T/ins97aE/T98G/F99L/C122S/G151N/Q175L/Q192D (enzyme) VVGGTDADEGEWPWQVSLHALGHGHACGASLISPNWLVSAAHCYIDVRGRRWSDPTQWTAFLGLHDQSQRSAPGVQERRLKRIISHPFFNDTEGLDYDIALLELEKPAEYSSMVRPISLPDASHVFPAGKAIWVTGWGHTQYGGTNALILQKGEIRVINQTTCENLLPQLITPRMMCVGFLSGGVDSCDGDSGGPLSSVEADGRIFQAGVVSWGDGCAQRNKPGVYTRLPLFRDWIKENTGV | – |
| 1900 nM | – | 0.2 mg/kg | Q38H/I41A/D60bT/F60eK/Y60gW/F97T/ins97aE/T98G/F99L/C122S/G151N/Q175L/Q192D (enzyme) VVGGTDADEGEWPWQVSLHALGHGHACGASLISPNWLVSAAHCYIDTRGKRWSDPTQWTAFLGLHDQSQRSAPGVQERRLKRIISHPFFNDTEGLDYDIALLELEKPAEYSSMVRPISLPDASHVFPAGKAIWVTGWGHTQYGGTNALILQKGEIRVINQTTCENLLPQLITPRMMCVGFLSGGVDSCDGDSGGPLSSVEADGRIFQAGVVSWGDGCAQRNKPGVYTRLPLFRDWIKENTGV | – |
